The text below walks through data of PMC10724065, “Evolution of a plant growth-regulatory protein interaction specificity” (Nature Plants, 2023).

To fix the notation:
B1: Arabidopsis thaliana AtSLY1 (yeast bait fusion) [Arabidopsis thaliana] / A. thaliana RGA (yeast prey fusion) [Arabidopsis thaliana] (parent complex)
chain 1: MKRSTTDSDLAGDAHNETNKKMKSTEEEEIGFSNLDENLVYEVLKHVDAKTLAMSSCVSKIWHKTAQDERLWELICTRHWTNIGCGQNQLRSVVLALGGFRRLHSLYLWPLSKPNPRARFGKDELKLTLSLLSIRYYEKMSFTKRPLPESK
chain 2: MKRDHHQFQGRLSNHGTSSSSSSISKDKMMMVKKEEDGGGNMDDELLAVLGYKVRSSEMAEVALKLEQLETMMSNVQEDGLSHLATDTVHYNPSELYSWLDNMLSELNPPPLPASSNGLDPVLPSPEICGFPASDYDLKVIPGNAIYQFPAIDSSSSSNNQNKRLKSCSSPDSMVTSTSTGTQIGGVIGTTVTTTTTTTTAAGESTRSVILVDSQENGVRLVHALMACAEAIQQNNLTLAEALVKQIGCLAVSQAGAMRKVATYFAEALARRIYRLSPPQNQIDHCLSDTLQMHFYETCPYLKFAHFTANQAILEAFEGKKRVHVIDFSMNQGLQWPALMQALALREGGPPTFRLTGIGPPAPDNSDHLHEVGCKLAQLAEAIHVEFEYRGFVANSLADLDASMLELRPSDTEAVAVNSVFELHKLLGRPGGIEKVLGVVKQIKPVIFTVVEQESNHNGPVFLDRFTESLHYYSTLFDSLEGVPNSQDKVMSEVYLGKQICNLVACEGPDRVERHETLSQWGNRFGSSGLAPAHLGSNAFKQASMLLSVFNSGQGYRVEESNGCLMLGWHTRPLITTSAWKLSTAAY
B2: Arabidopsis thaliana AtSLY1 (yeast bait fusion) [Arabidopsis thaliana] / A. thaliana GAI (yeast prey fusion) [Arabidopsis thaliana] (parent complex)
chain 1: B1 chain 1
chain 2: MKRDHHHHHHQDKKTMMMNEEDDGNGMDELLAVLGYKVRSSEMADVAQKLEQLEVMMSNVQEDDLSQLATETVHYNPAELYTWLDSMLTDLNPPSSNAEYDLKAIPGDAILNQFAIDSASSSNQGGGGDTYTTNKRLKCSNGVVETTTATAESTRHVVLVDSQENGVRLVHALLACAEAVQKENLTVAEALVKQIGFLAVSQIGAMRKVATYFAEALARRIYRLSPSQSPIDHSLSDTLQMHFYETCPYLKFAHFTANQAILEAFQGKKRVHVIDFSMSQGLQWPALMQALALRPGGPPVFRLTGIGPPAPDNFDYLHEVGCKLAHLAEAIHVEFEYRGFVANTLADLDASMLELRPSEIESVAVNSVFELHKLLGRPGAIDKVLGVVNQIKPEIFTVVEQESNHNSPIFLDRFTESLHYYSTLFDSLEGVPSGQDKVMSEVYLGKQICNVVACDGPDRVERHETLSQWRNRFGSAGFAAAHIGSNAFKQASMLLALFNGGEGYRVEESDGCLMLGWHTRPLIATSAWKLSTN

The variants in one assay derive from B1. Briefly: yeast 2-hybrid; read off a plot.
Turning to chain 1 MKRSTTDSDLAGDAHNETNKKMKSTEEEEIGFSNLDENLVYEVLKHVDAKTLAMSSCVSKIWHKTAQDERLWELICTRHWTNIGCGQNQLRSVVLALGGFRRLHSLYLWPLSKLNPRARFGKDELKLTLSLLSIRYYEKMSFTKRPLPESK [chain 1 P114L], the response is ~1.5 β-galactosidase units. Still for that read-out and setting: to chain 1 MKRSTTDSDLAGDAHNETNKKMKSTEEEEIGFSNLDENLVYEVLKHVDAKTLAMSSCVSKIWHKTAQDERLWELICTRHWTNIGCGQNQLRSVVLALGGFRRLHSLYLWPLSKSNPRARFGKDELKLTLSLLSIRYYEKMSFTKRPLPESK [chain 1 P114S] belongs ~3.6 β-galactosidase units. Same read-out and setting: next, chain 1 MKRSTTDSDLAGDAHNETNKKMKSTEEEEIGFSNLDENLVYEVLKHVDAKTLAMSSCVSKIWHKTAQDERLWELICTRHWTNIGCGQNQLRSVVLALGGFRRLYSLYLWPLSKPNPRARFGKDELKLTLSLLSIRYYEKMSFTKRPLPESK [chain 1 H104Y]: ~55 β-galactosidase units; chain 1 MKRSTTDSDLAGDAHNETNKKMKSTEEEEIGFSNLDENLVYEVLKHVDAKTLAMSSCVSKIWHKTAQDERLWELICTRHWTNIGCGQNQLRSVVLALGGFRRLHSLYLWPLSKPNPRARFGKDELKLALSLLSIRYYEKMSFTKRPLPESK [chain 1 T128A]: ~24 β-galactosidase units; chain 1 MKRSTTDSDLAGDAHNETNKKMKSTEEEEIGFSNLDENLVYEVLKHVDAKTLAMSSCVSKIWHKTAQDERLWELICTRHWTNIGCGQNQLRSVVLALGGFRRLHSLYLWPLSKPNPRARFGKDELKLSLSLLSIRYYEKMSFTKRPLPESK [chain 1 T128S]: ~1.3 β-galactosidase units. On to chain 1 E138K, for which the response was ~3.7 β-galactosidase units. For the variant chain 1 MKRSTTDSDLAGDAHNETNKKMKSTEEEEIGFSNLDENLVYEVLKHVDAKTLAMSSCVSKIWHKTAQDERLWELICTRHWTNIGCGQNQLRSVVLALGGFRRLHSLYLWPLSKPNPRARFGKDELTLTLSLLSIRYYEKMSFTKRPLPESK [chain 1 K126T], the response was ~0.6 β-galactosidase units. Still for that read-out and setting: to chain 1 MKRSTTDSDLAGDAHNETNKKMKSTEEEEIGFSNLDENLVYEVLKHVDAKTLAMSSCVSKIWHKTAQDERLWELICTRHWTNIGCGQNQLRSVVLALGGFRRLHSLYLWPLSKPNPRARFGKDELNLTLSLLSIRYYEKMSFTKRPLPESK [chain 1 K126N] belongs ~3.9 β-galactosidase units.

The variants in a further assay derive from B2. Briefly: pull-down (IP: His, immunoblot); parent: 1.
As for chain 1 MKRSTTDSDLAGDAHNETNKKMKSTEEEEIGFSNLDENLVYEVLKHVDAKTLAMSSCVSKIWHKTAQDERLWELICTRHWTNIDCGQNQLRSVVLALGGFRRLHSLYLWPLSKPNPRARFGKDELKLTLSLLSIRYYEKMSFTKRPLPESK [chain 1 G84D], the ratio to parent was 1.41.

In a further assay the parent is B2. Kind of assay: yeast 2-hybrid; parent: 0.3; read off a plot.
Consider chain 1 MKRSTTDSDLAGDAHNETNKKMKSTEEEEIGFSNLDENLVYEVLKHVDAKTLAMSSCVSKIWHKTAQDERLWELICTRHWTNIGCGQNQLRSVVLALGGFRRLHSLYLWPLSKPNPRARFGKDELELTLSLLSIRYYEKMSFTKRPLPESK [chain 1 K126E], for which the response is ~19 β-galactosidase units.

In the case of chain 1 MKRSTTDSDLAGDAHNETNKKMKSTEEEEIGFSNLDENLVYEVLKHVDAKTLAMSSCVSKIWHKTAQDERLWELICTRHWTNIGCGQNQLRSVVLALGGFRRLHSLYLWPLSKPNPRARFGKDELNLTLSLLSIRYYEKMSFTKRPLPESK [chain 1 K126N], the response is ~51 β-galactosidase units. Still for that read-out and setting: next, chain 1 MKRSTTDSDLAGDAHNETNKKMKSTEEEEIGFSNLDENLVYEVLKHVDAKTLAMSSCVSKIWHKTAQDERLWELICTRHWTNIGCGQNQLRSVVLALGGFRRLHSLYLWPLSKPNPRARFGKDELTLTLSLLSIRYYEKMSFTKRPLPESK [chain 1 K126T]: ~24 β-galactosidase units. Consider chain 1 MKRSTTDSDLAGDAHNETNKKMKSTEEEEIGFSNLDENLVYEVLKHVDAKTLAMSSCVSKIWHKTAQDERLWELICTRHWTNIGCGQNQLRSVVLALGGFRRLHSLYLWPLSKLNPRARFGKDELKLTLSLLSIRYYEKMSFTKRPLPESK [chain 1 P114L], for which the response is ~37 β-galactosidase units.

The variants in another assay derive from B2. Kind of assay: yeast 2-hybrid; parent: 0.35; read off a plot.
As for chain 1 MKRSTTDSDLAGDAHNETNKKMKSTEEEEIGFSNLDENLVYEVLKHVDAKTLAMSSCVSKIWHKTAQDERLWELICTRHWTNIGCGQNQLRSVVLALGGFRRLHSLYLWPLSKLNPRARFGKDELKLTLSLLSIRYYEKMSFTKRPLPESK [chain 1 P114L], the response is ~63 β-galactosidase units.

In a further assay the parent is B2. Kind of assay: yeast 2-hybrid; parent: 0.35; read off a plot. The source holds these as a separate data set.
As for chain 1 MKRSTTDSDLAGDAHNETNKKMKSTEEEEIGFSNLDENLVYEVLKHVDAKTLAMSSCVSKIWHKTAQDERLWELICTRHWTNIGCGQNQLRSVVLALGGFRRLHSLYLWPLSKLNPRARFGKDELKLTLSLLSIRYYEKMSFTKRPLPESK [chain 1 P114L], the response was ~25 β-galactosidase units.

The variants in a further assay derive from B2. Briefly: pull-down (IP: His, immunoblot); without GST-GID1C, without GA3 (GAI in A Form); parent: 1. (A western blot detects proteins with antibodies after separation by electrophoresis.)
Consider chain 1 MKRSTTDSDLAGDAHNETNKKMKSTEEEEIGFSNLDENLVYEVLKHVDAKTLAMSSCVSKIWHKTAQDERLWELICTRHWTNIGCGQNQLRSVVLALGGFRRLHSLYLWPLSKLNPRARFGKDELKLTLSLLSIRYYEKMSFTKRPLPESK [chain 1 P114L], for which the ratio to parent stood at 1.89.

The variants in another assay derive from B2. Briefly: pull-down (IP: His, immunoblot); with GST-GID1C, with GA3 (GAI in A + A' Forms); parent: 2.41.
In the case of chain 1 MKRSTTDSDLAGDAHNETNKKMKSTEEEEIGFSNLDENLVYEVLKHVDAKTLAMSSCVSKIWHKTAQDERLWELICTRHWTNIGCGQNQLRSVVLALGGFRRLHSLYLWPLSKLNPRARFGKDELKLTLSLLSIRYYEKMSFTKRPLPESK [chain 1 P114L], the response is 7.38 relative anti-MBP band intensity (SLY1 without GST-GID1C and GA3 = 1.00).
